This note sets out measurements from PMC6325770.

This assay addresses enhanced green fluorescent protein-labelled G-protein-coupled receptor kinase-interacting protein 1 (GIT1) (UniProt Q9Y2X7). The assay is described as follows: MST; enhanced green fluorescent protein-labelled GIT1 in human embryonic kidney 293 cell lysate at constant 20 nmol/L, serial dilution of purified CLIC4; Monolith NT.115.
UniProt Q9Y2X7, sequence (Q9Y2X7 whole entry): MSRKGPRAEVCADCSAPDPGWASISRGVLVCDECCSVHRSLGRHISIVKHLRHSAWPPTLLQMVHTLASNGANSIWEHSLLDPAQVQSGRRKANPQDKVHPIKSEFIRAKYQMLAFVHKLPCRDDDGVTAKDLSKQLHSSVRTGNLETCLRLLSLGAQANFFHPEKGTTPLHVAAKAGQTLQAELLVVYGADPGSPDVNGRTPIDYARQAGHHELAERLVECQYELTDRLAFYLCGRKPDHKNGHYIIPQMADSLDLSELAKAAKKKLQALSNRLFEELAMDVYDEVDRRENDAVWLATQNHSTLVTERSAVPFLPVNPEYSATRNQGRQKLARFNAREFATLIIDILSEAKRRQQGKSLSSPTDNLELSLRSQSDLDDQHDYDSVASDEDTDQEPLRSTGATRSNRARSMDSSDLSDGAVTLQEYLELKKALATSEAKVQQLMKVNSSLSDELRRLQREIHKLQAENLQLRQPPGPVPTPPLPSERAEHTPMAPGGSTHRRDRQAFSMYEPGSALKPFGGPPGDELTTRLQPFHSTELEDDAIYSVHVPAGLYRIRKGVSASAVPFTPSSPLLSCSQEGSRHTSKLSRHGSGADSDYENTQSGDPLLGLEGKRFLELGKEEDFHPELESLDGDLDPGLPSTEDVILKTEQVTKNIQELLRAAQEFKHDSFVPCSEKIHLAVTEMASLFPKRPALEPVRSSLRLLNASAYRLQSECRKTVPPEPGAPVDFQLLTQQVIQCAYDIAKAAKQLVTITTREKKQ

Consider “purified CLIC4 (ab104744; Abcam) (from UniProt Q9Y696 1-253) (natural protein)”, for which the Kd is 1800 nM.
